For one substance, % of cells in the positive gate results are on record in patent US20250381223A1.

The target of assay [1] is Her2-Fc. The assay is described as follows: flow cytometry of T cells with 0.5 µg 4D5.BBZ mRNA and 15 µg 4.1 mRNA; Her2-Fc + PE-anti-IgG-Fc; E1 without mRNA: 1.26.
Assay [2] has as its target Her2-Fc. The assay is described as follows: flow cytometry of T cells with 0.5 µg 4D5.BBZ mRNA and 15 µg 4.2 mRNA; Her2-Fc + PE-anti-IgG-Fc; E1 without mRNA: 1.26.
The target in assay [3] is Her2-Fc. The assay is described as follows: flow cytometry of T cells with 0.5 µg 4D5.BBZ mRNA and 15 µg 4.3 mRNA; Her2-Fc + PE-anti-IgG-Fc; E1 without mRNA: 1.26.
Assay [4] concerns the target Her2-Fc. The assay is described as follows: flow cytometry of T cells with 0.5 µg 4D5.BBZ mRNA and 15 µg 4.4 mRNA; Her2-Fc + PE-anti-IgG-Fc; E1 without mRNA: 1.26.
In assay [5] the target is Her2-Fc. The assay is described as follows: flow cytometry of T cells with 0.5 µg 4D5.BBZ mRNA and 15 µg 4.5 mRNA; Her2-Fc + PE-anti-IgG-Fc; E1 without mRNA: 1.26.
Assay [6] addresses Her2-Fc. The assay is described as follows: flow cytometry of T cells with 0.5 µg 4D5.BBZ mRNA and 15 µg 4.6 mRNA; Her2-Fc + PE-anti-IgG-Fc; E1 without mRNA: 1.26.
For assay [7], the target named is Her2-Fc. The assay is described as follows: flow cytometry of T cells with 0.5 µg 4D5.BBZ mRNA and 15 µg 4.7 mRNA; Her2-Fc + PE-anti-IgG-Fc; E1 without mRNA: 1.26.
The target of assay [8] is Her2-Fc. The assay is described as follows: flow cytometry of T cells with 0.5 µg 4D5.BBZ mRNA and 15 µg 4.8 mRNA; Her2-Fc + PE-anti-IgG-Fc; E1 without mRNA: 1.26.
Assay [9] concerns the target Her2-Fc. The assay is described as follows: flow cytometry of T cells with 0.5 µg 4D5.BBZ mRNA and 15 µg 8.6 mRNA; Her2-Fc + PE-anti-IgG-Fc; E1 without mRNA: 1.26.
The target of the next assay is CD40-Fc (human) (UniProt P25942). The assay is described as follows: flow cytometry of T cells electroporated with 0.5 µg 4D5.BBZ mRNA alone; CD40-Fc + PE-anti-IgG-Fc; E1 without mRNA: 0.27.
Assay [10] deals with Her2-Fc. The assay is described as follows: flow cytometry of T cells electroporated with 0.5 µg 4D5.BBZ mRNA alone; Her2-Fc + PE-anti-IgG-Fc; E1 without mRNA: 1.26.
The target in assay [11] is Her2-Fc. The assay is described as follows: flow cytometry of T cells with 0.5 µg 4D5.BBZ mRNA and 5 µg A40C28 mRNA; Her2-Fc + PE-anti-IgG-Fc; E1 without mRNA: 1.26.
The target in assay [12] is Her2-Fc. The assay is described as follows: flow cytometry of T cells with 0.5 µg 4D5.BBZ mRNA and 15 µg 1412-4D11 mRNA; Her2-Fc + PE-anti-IgG-Fc; E1 without mRNA: 1.26.

On to 4D5.BBZ (scFv), for which the % of cells in the positive gate in the assay with Her2-Fc [1] was 89.6; with Her2-Fc [2], 88.8; in the assay with Her2-Fc [3], 91.4; with Her2-Fc [4], 91.1; with Her2-Fc [5], 85.5; with Her2-Fc [6], 87.9. The % of cells in the positive gate with Her2-Fc [7] worked out at 82.6; with Her2-Fc [8] it was 81.6; in the assay with Her2-Fc [9], 86.1; in the assay with CD40-Fc (human), 0.67; with Her2-Fc [10], 94.9; with Her2-Fc [11], 94.6. Besides, the % of cells in the positive gate with Her2-Fc [12] stood at 18.5.
